Measurements: PMC8876628 (Toxins, 2022)

B1: TT104 human monoclonal antibody (antibody, V domains shown)
VH: QLQLQESGPGLVRPSETLSLTCSVSDDSMGSSTYYWAWIRQPPGKGLEWIGNVYYNGVTYYNSSLESRLTLSIDPSKNQFSLILSSVTAADTAVYYCARQADNWFDPWGQGTLVTVSS
VL: EIMMTQSPATLSVSPGERATLSCRASQSVGSDLAWYQQKPGQAPRLLIYGASYRATGIPARFSGGGSGTEFTLTISSMQSEDFAVYYCQQYYNWPPYTFGQGTKVEIK
notes: also called humAb TT104
B2: TT110 human monoclonal antibody (antibody, V domains shown)
VH: QVQLMQSGAEVQKPGASVKVSCQASGFTLNNYYIHWLRQAPGQGFEWMGIFNPSSGTRTYAQKFQGRISMTADASTTTLYMELSGLTSEDAGVYFCARIGGSTYGRLMTYYFDHWGQGTVVAVSS
VL: EVVLTQSPVTLSVSPGGRGTLSCRASRSISTTLAWYQQKPGQAPRLLIYGASTRATGIPARFTGSGSGTEFTLTISSLQSEDFAVYYCQQYNDWPVTFGQGTQVEVK
notes: also called humAb TT110

Molecular target: Tetanus neurotoxin (Clostridium tetani, UniProt P04958)
Assay: cryo-EM structure; epitopes of TT104 and TT110 on TeNT determined via cryo-EM
Conditions: both partners purified

Sequence of Tetanus neurotoxin (P04958 whole entry): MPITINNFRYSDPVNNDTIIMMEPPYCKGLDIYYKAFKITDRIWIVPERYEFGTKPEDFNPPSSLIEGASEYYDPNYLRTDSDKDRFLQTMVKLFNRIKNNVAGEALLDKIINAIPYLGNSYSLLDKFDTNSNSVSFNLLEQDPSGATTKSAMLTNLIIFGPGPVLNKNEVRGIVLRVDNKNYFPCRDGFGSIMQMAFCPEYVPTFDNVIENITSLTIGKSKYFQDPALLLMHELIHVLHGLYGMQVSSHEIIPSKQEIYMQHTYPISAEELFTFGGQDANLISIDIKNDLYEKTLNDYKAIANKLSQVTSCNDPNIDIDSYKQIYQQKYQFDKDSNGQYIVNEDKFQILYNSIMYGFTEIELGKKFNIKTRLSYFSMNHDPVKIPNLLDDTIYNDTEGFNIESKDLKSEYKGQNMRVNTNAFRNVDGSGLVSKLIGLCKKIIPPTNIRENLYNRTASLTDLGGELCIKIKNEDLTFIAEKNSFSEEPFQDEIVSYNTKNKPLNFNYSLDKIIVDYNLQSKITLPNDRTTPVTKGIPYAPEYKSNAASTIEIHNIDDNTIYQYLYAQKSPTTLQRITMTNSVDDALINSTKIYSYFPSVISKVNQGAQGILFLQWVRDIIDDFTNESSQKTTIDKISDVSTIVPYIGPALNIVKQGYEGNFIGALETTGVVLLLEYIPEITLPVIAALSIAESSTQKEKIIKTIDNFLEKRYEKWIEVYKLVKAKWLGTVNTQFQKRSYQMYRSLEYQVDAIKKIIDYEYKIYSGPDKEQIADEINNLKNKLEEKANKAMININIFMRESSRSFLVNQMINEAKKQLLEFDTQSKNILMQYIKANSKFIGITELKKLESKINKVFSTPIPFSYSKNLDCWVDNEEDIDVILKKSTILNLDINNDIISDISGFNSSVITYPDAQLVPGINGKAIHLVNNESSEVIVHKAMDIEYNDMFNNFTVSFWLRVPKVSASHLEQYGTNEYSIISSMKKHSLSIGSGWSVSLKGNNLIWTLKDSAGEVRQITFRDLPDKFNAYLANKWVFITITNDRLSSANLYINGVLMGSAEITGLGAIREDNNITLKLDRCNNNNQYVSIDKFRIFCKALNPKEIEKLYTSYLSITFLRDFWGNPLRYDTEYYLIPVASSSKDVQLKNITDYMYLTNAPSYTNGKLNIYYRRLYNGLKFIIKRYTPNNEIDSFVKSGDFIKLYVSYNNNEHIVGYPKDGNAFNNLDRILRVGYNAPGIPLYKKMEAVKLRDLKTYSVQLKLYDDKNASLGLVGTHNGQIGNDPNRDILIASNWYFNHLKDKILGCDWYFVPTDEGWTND

| Binder | binding result |
| --- | --- |
| B1 | binds |
| B2 | binds |
